Data taken from US9518268B2, “Drought tolerant transgenic plants and method of making same” (PURDUE RESEARCH FOUNDATION, priority 2013, dated 2016).

Test system: RD29B-LUC expression
Test: ABA-independent induction of RD29B-LUC in triple mutant protoplasts
Type: cell-based, Arabidopsis
Settings: abi1/hab1/abi2 protoplasts
Text: The basal RD29B-LUC expression level was elevated in protoplasts co-transfected with PP2CA-PYL13, HAI2-PYL13, or HAI3-PYL13, which is consistent with PYL13 inhibition of these PP2Cs in an ABA-independent manner in vivo (FIG. 4A). To exclude interference by endogenous PP2Cs in wild type protoplasts and to assess the ABA-independent selective inhibition of PP2Cs by PYL13, PYL13 was co-expressed with PP2CA, HAI1, HAI2, and HAI3 in abi1/hab1/abi2 triple mutant protoplasts, as shown in FIG. 4C. After transfection, protoplasts were incubated for 4.5 h under light in the absence of ABA. Error bars indicate s.e.m. (n=3).
Expression of RD29B-LUC in the absence of ABA was increased in the transfections of PYL9-K63Q/L89F or PYL11-K39Q/L66F together with SnRK2.6 and ABF2 to a considerable level. The ABA-independent RD29B-LUC expression is about 70% of that in the presence of 5 μM ABA in the transfection of PYL11-K39Q/L66F, while about 30˜60% in the transfection of PYL9-K63Q/L89F (FIG. 4). […] RD29B-LUC was used as the ABA-responsive reporter. ZmUBQ-GUS was used as the internal control. After transfection, protoplasts were incubated for 4.5 h under light in the absence of ABA (open bars) or in the presence of 5 μM ABA (closed bars). Error bars indicate s.e.m. (n=4).
Assays for transient expression in protoplasts were performed as described (Fujii et al., 2009). Leaf strips (0.5 mm) were cut from the middle part of second leaves using a razor blade (VWR SCIENTIFIC) and submerged in 15 mL of enzyme solution containing 20 mM MES, pH 5.7, 1.5% (w/v) cellulase R10 (YAKULT PHARMACEUTICAL INDUSTRY), 0.4% (w/v) macerozyme R10 (YAKULT PHARMACEUTICAL INDUSTRY), 0.4 M mannitol, 20 mM KCl, 10 mM CaCl2, 1 mM 2-mercaptoethanol, and 0.1% BSA. The leaves were vacuum infiltrated for 30 min and then incubated without shaking for 3 h in the dark at room temperature. The enzyme/protoplast solution was diluted with 15 mL of W5 solution (2 mM MES, pH 5.7, 154 mM NaCl, 125 mM CaCl2, and 5 mM KCl) and filtered with a 75-μm nylon mesh. Protoplasts were centrifuged at 100 g for 2 min in a 30-mL round-bottomed tube (SARSTEDT), resuspended in W5 solution, and rested for 30 min at room temperature.
Before transfection, protoplasts were changed into MMg solution (4 mM MES, pH 5.7, 0.4 M mannitol, and 15 mM MgCl2) to a final concentration of 2×10^5 cells per microliter. Protoplasts (100 μl) were gently and thoroughly mixed with the plasmid DNA mixture (less than 10 μl) and 110 μl of PEG solution (40% w/v PEG-4000, 0.2 M mannitol, and 100 mM CaCl2), incubated for 5 min, washed with 440 μl of W5 solution, and resuspended in 50 μl of WI solution (4 mM MES, pH 5.7, 0.5 M mannitol, and 20 mM KCl). After transfection, protoplasts were incubated in WI solution without ABA or with 5 μM ABA under light. The protoplasts were harvested after 4.5 h, frozen in liquid N2, and stored at −80° C.
The frozen protoplasts were resuspended in 50 μl of protoplast lysis buffer containing 2.5 mM Tris-phosphate, pH 7.8, 1 mM DTT, 2 mM DACTAA, 10% (v/v) glycerol, and 1% (v/v) Triton X-100. Protoplast lysates (20 μl) were mixed with 100 μl of LUC mix (PROMEGA), and LUC luminescence was measured with a plate reader (Wallac VICTOR2 plate reader).
Protoplast lysates (2 μl) were mixed with 10 μl of 4-methylumbelliferyl β-D-glucuronide (MUG) substrate mix (10 mM Tris-HCl, pH 8, 1 mM MUG [GOLD BIOTECHNOLOGY], and 2 mM MgCl2). After the mixture was kept for 30 min at 37° C., 100 μl of 0.2 M Na2CO3 was added, and GUS activity was measured using the plate reader with the excitation filter at 355 nm and the emission filter at 460 nm.
All the plasmids used in this assay were purified with the QIAGEN Plasmid Maxi Kit or the QIAGEN Plasmid Midi Kit. The quality of plasmid DNA is important for high transfection efficiency. RD29B::LUC (7 μg of plasmid per transfection) was used as the ABA-responsive reporter. ZmUBQ::GUS (2 μg of plasmid per transfection) was used as the internal control. […]

Molecule	expression of RD29B-LUC in the absence of ABA (with PP2CA only, SnRK2.6 and ABF2 (control transfection))	expression of RD29B-LUC in the absence of ABA (with HAI1, SnRK2.6 and ABF2)	expression of RD29B-LUC in the absence of ABA (with PP2CA, HAI2, or HAI3, SnRK2.6 and ABF2)
PYL2: Arabidopsis thaliana PYL family ABA receptor protein PYL2, AT2G26040	an increase was not observed	–	–
PYL13: Arabidopsis thaliana PYR/PYL/RCAR family protein PYL13, SEQ ID NO: 1 (protein, listed as Arabidopsis thaliana) MESSKQKRCRSSVVETIEAPLPLVWSILRSFDKPQAYQRFVKSCTMRSGGGGGKGGEGKGSVRDVTLVSGFPADFSTERLEELDDESHVMVVSIIGGNHRLVNYKSKTKVVASPEDMAKKTVVVESYVVDVPEGTSEEDTIFFVDNIIRYNLTSLAKLTKKMMK	–	an increase was not observed	increased
